The target in assay [1] is neonatal Fc receptor (FcRn) on FcRn Affinity Column Gen2 (Roche, Cat #09430857001) (UniProt P55899 24-297; P61769 21-119, limits assumed). Briefly: FcRn-HPLC (Roche FcRn Affinity Column Gen2), peak width at 50% peak height.
Procedure: Stock antibody solutions were diluted to 1 mg/mL into 20 mM MES, 140 mM NaCl, pH5.5. […] 20 μμL antibody injections were made followed by 10 minute column wash with 20 mM MES, 140 mM NaCl, pH5.5. Antibodies were then eluted by pH gradient elution into 20 mM Tris, 140 mM NaCl, pH8.8 over 90 minutes. Chromatograms were blank-subtracted to remove baseline drift.
Assay [2] deals with T1, human FcγRIIA_131H (CD32a) extracellular domain (human, UniProt P12318 34-217).
T1 construct: extracellular domain
T1 sequence (looked up): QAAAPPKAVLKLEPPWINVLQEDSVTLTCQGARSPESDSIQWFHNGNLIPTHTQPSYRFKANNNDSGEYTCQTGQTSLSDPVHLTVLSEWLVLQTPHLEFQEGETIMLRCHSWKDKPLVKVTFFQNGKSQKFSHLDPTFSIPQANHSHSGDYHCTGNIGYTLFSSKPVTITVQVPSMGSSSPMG
Kind of assay: SPR at 25 C, antibody captured on Protein A chip.
Procedure: (§1) Briefly, the surfaces of all 4 flow cells were activated by injecting a 1:1 mixture of EDC/NHS for 7 minutes at 10 μL/minute. […] Un-reacted sites were blocked with a 7-minute injection of ethanolamine at 10 μL/minute. Injections of 2×10 μL of glycine pH 1.5 were used to remove any noncovalently associated protein.
(§2) For FcγRI binding, antibodies were diluted to 2.5 g/mL in running buffer (1x HBS-EP+, Teknova P/N H8022), and approximately 150 RU of each antibody was captured in flow cells 2 through 4 (RUcaptured). FC1 was the reference flow cell, therefore, no antibody was captured in FC1. […] Duplicate injections of each concentration were injected over all FCs at 40 μL/minute for 120 seconds followed by a 1200 second dissociation phase. Regeneration was performed by injecting 15 μL of 10 mM glycine pH 1.5 at 30 μL/minute over all FCs. Reference-subtracted data was collected as FC2-FC1, FC3-FC1, and FC4-FC1. The measurements were obtained at 25° C. The affinity (KD) was calculated using either steady state equilibrium analysis with the Scrubber 2 Biacore® Evaluation Software or a “1:1 (Langmuir) binding” model in BIA Evaluation.
(§3) For FcγRIIa, FcγRIIb, and FcγRIIIa binding, antibodies were diluted to 5 μg/mL in running buffer, and approximately 500 RU is captured in flow cells 2 through 4 (RUcaptured). FC1 is the reference flow cell. […] Duplicate injections of each concentration were injected over all FCs at 40 L/minute for 60 seconds followed by a 120 second dissociation phase. Regeneration was performed by injecting 15μL of 10 mM glycine pH 1.5 at 30 μL/minute over all FCs.

Assay [3] has as its target T2, human FcγRIIb (CD32b) extracellular domain (human, UniProt P31994 43-217).
T2 construct: extracellular domain
T2 sequence (looked up): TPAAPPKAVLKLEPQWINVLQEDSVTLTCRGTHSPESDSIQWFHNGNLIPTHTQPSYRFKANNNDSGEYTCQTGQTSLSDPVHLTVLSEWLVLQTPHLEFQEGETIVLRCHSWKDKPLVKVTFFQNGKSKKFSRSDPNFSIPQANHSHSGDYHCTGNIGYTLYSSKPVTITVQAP
Kind of assay: SPR at 25 C, antibody captured on Protein A chip.
Procedure: as §1, §2, §3

In assay [4] the target is T3, human FcγRI (CD64) extracellular domain (human, UniProt P12314 16-292).
T3 construct: extracellular domain; also called FcγRI ECD
T3 sequence (P12314 16-292): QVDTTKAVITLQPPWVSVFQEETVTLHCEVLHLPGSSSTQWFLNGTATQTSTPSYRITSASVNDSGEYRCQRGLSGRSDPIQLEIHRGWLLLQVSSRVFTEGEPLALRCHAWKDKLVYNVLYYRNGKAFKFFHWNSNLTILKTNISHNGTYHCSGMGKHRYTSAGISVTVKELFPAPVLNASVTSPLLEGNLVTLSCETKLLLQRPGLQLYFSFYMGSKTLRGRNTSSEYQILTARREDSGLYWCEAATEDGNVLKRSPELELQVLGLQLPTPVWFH
Briefly: SPR at 25 C, antibody captured on Protein A chip.
Procedure: as §1, §2, §3

Assay [5] addresses T4, human FcγRIIIA_158F (CD16a) extracellular domain (human, UniProt P08637 17-208).
T4 construct: extracellular domain
Briefly: SPR at 25 C, antibody captured on Protein A chip.
Procedure: as §1, §2, §3

Assay [6] addresses T5, human FcγRIIA_131R (CD32a) extracellular domain (human, UniProt P12318 34-217).
T5 construct: extracellular domain
T5 sequence (looked up): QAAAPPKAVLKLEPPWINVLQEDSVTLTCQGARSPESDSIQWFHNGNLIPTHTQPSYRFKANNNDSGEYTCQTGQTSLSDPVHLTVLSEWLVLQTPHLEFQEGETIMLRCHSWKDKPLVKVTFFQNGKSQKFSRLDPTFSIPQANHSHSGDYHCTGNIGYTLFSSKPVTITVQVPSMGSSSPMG
Briefly: SPR at 25 C, antibody captured on Protein A chip.
Procedure: as §1, §2, §3

The target in assay [7] is T6, human FcγRIIIA_158V (CD16a) extracellular domain (human, UniProt P08637 17-208).
T6 construct: extracellular domain
T6 sequence (P08637 17-208 F176V): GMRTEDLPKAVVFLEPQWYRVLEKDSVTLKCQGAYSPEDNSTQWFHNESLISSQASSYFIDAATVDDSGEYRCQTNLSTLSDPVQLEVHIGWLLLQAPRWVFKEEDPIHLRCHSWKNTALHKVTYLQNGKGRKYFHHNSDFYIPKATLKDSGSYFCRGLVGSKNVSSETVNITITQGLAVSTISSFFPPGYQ
Briefly: SPR at 25 C, antibody captured on Protein A chip.
Procedure: as §1, §2, §3

Assay [8] has as its target T7, canine LEPR-ECD-His (canine).
T7 chain: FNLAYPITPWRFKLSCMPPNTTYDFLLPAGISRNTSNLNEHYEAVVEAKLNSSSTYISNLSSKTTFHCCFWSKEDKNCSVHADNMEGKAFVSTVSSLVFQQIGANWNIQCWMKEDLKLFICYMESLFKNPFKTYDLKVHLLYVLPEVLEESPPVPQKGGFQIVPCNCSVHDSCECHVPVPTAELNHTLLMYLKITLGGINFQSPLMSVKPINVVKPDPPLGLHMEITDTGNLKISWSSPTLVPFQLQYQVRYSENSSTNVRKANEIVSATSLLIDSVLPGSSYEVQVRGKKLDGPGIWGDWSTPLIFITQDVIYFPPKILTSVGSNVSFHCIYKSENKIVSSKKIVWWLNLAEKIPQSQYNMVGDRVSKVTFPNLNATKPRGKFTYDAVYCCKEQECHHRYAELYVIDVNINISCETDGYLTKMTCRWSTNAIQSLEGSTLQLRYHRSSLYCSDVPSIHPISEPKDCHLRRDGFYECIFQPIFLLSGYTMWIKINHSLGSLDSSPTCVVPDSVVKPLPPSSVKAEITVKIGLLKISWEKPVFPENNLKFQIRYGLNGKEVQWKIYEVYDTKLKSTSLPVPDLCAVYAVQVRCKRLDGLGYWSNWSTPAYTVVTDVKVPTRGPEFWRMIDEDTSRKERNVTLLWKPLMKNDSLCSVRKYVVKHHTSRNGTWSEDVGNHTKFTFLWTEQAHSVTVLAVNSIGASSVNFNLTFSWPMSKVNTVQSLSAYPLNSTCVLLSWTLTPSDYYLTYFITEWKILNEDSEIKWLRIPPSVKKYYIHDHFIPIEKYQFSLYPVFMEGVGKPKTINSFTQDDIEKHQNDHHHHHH
Kind of assay: SPR (Biacore T200), antibody captured on Protein A/G chip, His-tagged LEPR-ECD as analyte; summary sentence of Table 3.
Procedure: (§4) His-tagged ECDs were expressed and purified for each species and used for affinity analysis. A Protein A/G chip (Xantec, Cat #PAGHC200M) was utilized in this experiment with HBS-EP +0.01% BSA as running buffer. Antibodies were diluted to 1 μg/mL in running buffer and captured to a single flow cell on the chip surface. Each species of LEPR-ECD was diluted to 1000 nM in running buffer followed by 2-fold serial dilution. Each ligand concentration was injected over all flow cells at 100 L/min for 150 seconds followed by a 600 second dissociation phase. Regeneration was performed by injecting 10 mM glycine pH1.5 for 30 seconds at 10 μL/min. Data were analyzed in Biacore T200 Evaluation Software 3.1 by flow-cell 1 reference subtraction along with 0 nM blank subtraction. Data were fit globally using a “1:1 Binding” binding model to determine the on-rate (kₐ) and off-rate (kd) for each ligand. The affinity (KD) was calculated from the binding kinetics according to the relationship KD=kₐ/kd. Data reported as mean±standard deviation of experimental replicates.

Assay [9] concerns the target T8, cynomolgus monkey LEPR, full length, on HEK293-STAT3Luc-cmLepR2 cells (Macaca fascicularis).
T8 construct: whole, on cells; also called cyno-LEPR; Macaca fascicularis LEPR
Briefly: flow cytometry on live HEK293-STAT3Luc-cmLepR2 cells, AF647 anti-human IgG; average of 4 runs, SD 0.6.
Procedure: Cells were incubated in blocking buffer for 10 mins at room temperature. After one rinse with PBS, cells were transferred to U-bottom 96-well plate at 200 μL and 0.2˜0.26^e6 cells/well. […] Cells were then incubated with 30 μL/well of antibodies diluted in flow buffer at 1000 nM as high dose followed by 9-point dose response including 5-fold dilutions not including 0 (totaling 9 concentrations for each Antibody) for 30 minutes at 4° C. in dark.

Assay [10] addresses T7, canine LEPR-ECD-His. Kind of assay: SPR (Biacore T200), antibody captured on Protein A/G chip, His-tagged LEPR-ECD as analyte, 1:1 fit; mean n=2, SD 1.9E-8. In general terms: SPR reads the build-up and loss of mass on a sensor chip optically.
Procedure: as §4

The values that follow come from patent publication US20250289897A1 (Eli Lilly, published 2025).

neonatal Fc receptor (FcRn) on FcRn Affinity Column Gen2 (Roche, Cat #09430857001), sequence (P55899 24-297 limits assumed, chain 1 of 2): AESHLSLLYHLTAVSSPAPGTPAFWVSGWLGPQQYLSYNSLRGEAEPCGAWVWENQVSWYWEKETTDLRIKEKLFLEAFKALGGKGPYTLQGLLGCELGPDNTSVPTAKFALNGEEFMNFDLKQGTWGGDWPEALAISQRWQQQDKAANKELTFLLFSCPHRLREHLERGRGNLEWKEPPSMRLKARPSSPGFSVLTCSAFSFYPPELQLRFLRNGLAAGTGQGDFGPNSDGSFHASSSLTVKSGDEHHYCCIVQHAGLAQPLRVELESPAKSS
neonatal Fc receptor (FcRn) on FcRn Affinity Column Gen2 (Roche, Cat #09430857001), sequence (P61769 21-119 limits assumed, chain 2 of 2): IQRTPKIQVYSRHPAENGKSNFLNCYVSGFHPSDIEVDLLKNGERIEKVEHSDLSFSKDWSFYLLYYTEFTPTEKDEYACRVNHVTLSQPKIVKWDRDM
T4 sequence (P08637 17-208): as the sequence (P08637 17-208 F176V) above, with V160F counted along it

B1: Antibody A (antibody, human IgG1, kappa, L234A L235A)
heavy: EVQLLESGGGLVQPGGSLRLSCAASGFTFSSFAMSWVRQAPGKGLEWVSAISGSGGSTYSADSVRGRFTISRDNSKNTLYLQMNSLRAEDTAVYYCAKDQGDWDFLFDYWGQGTLVTVSSASTKGPSVFPLAPSSKSTSGGTAALGCLVKDYFPEPVTVSWNSGALTSGVHTFPAVLQSSGLYSLSSVVTVPSSSLGTQTYICNVNHKPSNTKVDKRVEPKSCDKTHTCPPCPAPEAAGGPSVFLFPPKPKDTLYITREPEVTCVVVSVSHEDPEVKFNWYVDGVEVHNAKTKPREEQYNSTYRVVSVLTVLHQDWLNGKEYKCKVSNKALPAPIEKTISKAKGQPREPQVYTLPPSREEMTKNQVSLTCLVKGFYPSDIAVEWESNGQPENNYKTTPPVLDSDGSFFLYSKLTVDKSRWQQGNVFSCSVMHEALHNHYTQKSLSLSPGK
light: DIQMTQSPSFLSASVGDRVTITCRASQGISSSLAWYQQKPGKAPKLLIYTASTLQSGVPSRFSGSGSGTEFTLTISSLQPEDFATYYCQQLIYYPFTFGQGTKVEIKRTVAAPSVFIFPPSDEQLKSGTASVVCLLNNFYPREAKVQWKVDNALQSGNSQESVTEQDSKDSTYSLSSTLTLSKADYEKHKVYACEVTHQGLSSPVTKSFNRGEC
notes: IgG1 mAb
As to B1, in [1], the “Peak Width” value was determined as 2.7 min. Moreover, the binding result in assay [2] is “no binding (tested: receptor ECD tested up to 10 µM)”; in [3] it was “no binding (tested: receptor ECD tested up to 10 µM)”; in [4], “no binding (tested: FcγRI ECD tested up to 200 nM)”; in [5], “no binding (tested: receptor ECD tested up to 10 µM)”; in [6], “no binding (tested: receptor ECD tested up to 10 µM)”; in [7], “no binding (tested: receptor ECD tested up to 10 µM)”.

B2: Antibody C (antibody, human IgG1, kappa, L234A L235A, V domains shown)
VH: EVQLLESGGGLVQPGGSLRLSCAASGFTFSSFAMSWVRQAPGKGLEWVSAISGSGGSTYSADSVRGRFTISRDNSKNTLYLQMNSLRAEDTAVYYCAKDQGDWDFLFDYWGQGTLVTVSS
VL: DIQMTQSPSFLSASVGDRVTITCRASQGISSSLAWYQQKPGKAPKLLIYTASTLQSGVPSRFSGSGSGTEFTLTISSLQPEDFATYYCQQLNYYPFSFGQGTKVEIKR
Usually EC50 stands for the midpoint of the concentration-response curve. For B2, the binding result in assay [8] is “binds”. Further, in assay [9], the EC50 stood at 0.83 nM.

B3: Antibody B (antibody, human IgG1, kappa, L234A L235A, V domains shown)
VH: EVQLLESGGGLVQPGGSLRLSCAASGFTFSSFAMSWVRQAPGKGLEWVSAISGSGGSTYSADSVRGRFTISRDNSKNTLYLQMNSLRAEDTAVYYCAKDQGDWDFLFDYWGQGTLVTVSS
VL: DIQMTQSPSFLSASVGDRVTITCRVSQGISSSLAWYQQKPGKAPKLLIYTASTLQSGVPSRFSGSGSGTEFTLTISSLQPEDFATYYCQQLNYYPFTFGQGTKVEIKR
By Kd is commonly meant the free concentration of one partner at which half of the binding sites on the other are occupied at equilibrium, for simple one-to-one binding. As for B3, in [10], the Kd came to 330 nM.
